To fix the notation:
B1: anti-ROR1 antibody clone G6 (antibody, V domains shown)
VH: EVQLVESGGGVVQPGGSLRLSCAASGFTFDDYAMHWVRQAPGKGLEWVSLISGDGGSTYYADSVKGRFTISRDNAKNSLYLQMNSLRAEDTAVYYCARDNWNDVYYYYGMDVWGQGTTVTVSS
VL: DIQLTQSPSSLSASIGDTVTISCQASRDISDYLNWYQHKPGKAPKLLIYDASNLATGVPSRFSGSGSGTDFTLTIKSLQPEDVATYFCQQDDLLPLTFGGGTKVDIK
B2: anti-ROR1 antibody clone G3 (antibody, V domains shown)
VH: QVQLQQWGAGLLKPSETLSLTCAVYGGSFSGYYWSWIRQPPGKGLEWIGEINHSGSTSYNPSLKSRVTISVDTSKNQFSLKLSSVTAADTAVYYCARGHSSGWYRRYFDLWGRGTLVTVSS
VL: EIVLTQSPATLSLSPGERATLSCRASQSVSSYLAWYQQKPGQAPRLLIYDASNRATGIPAKFSGSGSGTDFTLTISSLEPEDFAVYYCQQRSNWPPTFGGGTKVEIK
B3: anti-ROR1 antibody clone C3 (antibody, V domains shown)
VH: QVQLQESGPGLVKPSETLSLTCTVSGGSISSYYWSWIRQLPGKGLEWIGYMHYSGSTSYNPSLKGRLTISVDTSTNQFSLKLGSVTAADTAVYYCARYYYHDSSGYYSYFDYWGQGTLVTVSS
VL: EIVLTQSPGTLSLSPGERATLSCRASQSVSSYLAWYQQKAGQAPRLLIYDASNRASGIPARFSGSGSGTDFTLTISSLEPEDFAVYYCQQRSNWPPTFGGGTKVEIK

For this assay, the target named is Human ROR1-ECD (human, UniProt Q01973 30-406). Briefly: BLI (Fortebio).
Sequence of Human ROR1-ECD (Q01973 30-406): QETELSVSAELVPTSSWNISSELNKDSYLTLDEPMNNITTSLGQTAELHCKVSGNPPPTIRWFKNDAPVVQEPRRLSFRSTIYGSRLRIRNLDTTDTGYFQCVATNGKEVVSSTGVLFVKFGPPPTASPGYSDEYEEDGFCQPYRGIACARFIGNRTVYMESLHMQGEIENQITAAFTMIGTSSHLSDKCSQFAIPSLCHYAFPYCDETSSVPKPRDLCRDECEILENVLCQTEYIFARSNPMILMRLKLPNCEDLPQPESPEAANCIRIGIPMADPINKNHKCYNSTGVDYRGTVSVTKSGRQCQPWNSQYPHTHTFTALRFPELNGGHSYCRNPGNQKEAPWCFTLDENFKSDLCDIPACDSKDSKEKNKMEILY
In general, Kd refers to the constant that tells how readily two partners part at equilibrium. On to B1, for which the Kd is 43.7 nM.
The figure for B2 is 4.48 nM; for B3 it is 3.25 nM.

Values taken from patent US20220356246A1 (published 2022).
